From patent US20120316071A1 (published 2012)

Legend:
[1] = biological target: T1, Recombinant Human DLL4 (delta-like protein 4) (human, UniProt Q9NR61 27-524); experiment: ELISA, DLL4 coated on plate, Fab at 100 nM (2-fold dilution series), absorbance at 450 nm
T1 construct: Bought recombinant human DLL4 coated on the ELISA plate; also called rHuman DLL4

[2] = biological target: T1, Recombinant Human DLL4 (delta-like …); experiment: ELISA, DLL4 coated on plate, Fab at 12.5 nM (2-fold dilution series), absorbance at 450 nm
[3] = biological target: T1, Recombinant Human DLL4 (delta-like …); experiment: ELISA, DLL4 coated on plate, Fab at 25 nM (2-fold dilution series), absorbance at 450 nm
[4] = biological target: T1, Recombinant Human DLL4 (delta-like …); experiment: ELISA, DLL4 coated on plate, Fab at 50 nM (2-fold dilution series), absorbance at 450 nm

Binder	ELISA signal [1]	ELISA signal [2]	ELISA signal [3]	ELISA signal [4]
Fab VH5-51_IGHD5-18*01>3_IGHJ4*01 G100K/G104T G24T/S28R/G35V (KT TRV) & V3-4_IGLJ1*01 (wildtype) (Fab, V domains shown, Fab; Expressed in E. coli with CH1 (plasmid A, His6 and Flag tags) and lambda CL (plasmid E); also called H:KT TRV & L:wt) VH: EVQLVQSGAEVKKPGESLKISCKTSGYRFTSYWIVWVRQMPGKGLEWMGIIYPGDSDTRYSPSFQGQVTISADKSISTAYLQWSSLKASDTAMYYCARRKYSYTYDYFDYWGQGTLVTVSS VL: QTVVTQEPSFSVSPGGTVTLTCGLSSGSVSTSYYPSWYQQTPGQAPRTLIYSTNTRSSGVPDRFSGSILGNKAALTITGAQADDESDYYCVLYMGSGISYVFGTGTKVTVL	0.45	0.23	0.26	0.32
Fab VH5-51_IGHD5-18*01>3_IGHJ4*01 G100K/G104T G24L/S28R/G35V (KT LRV) & V3-4_IGLJ1*01 V91L/S96P S52F (Fab, V domains shown, Fab; Expressed in E. coli with CH1 (plasmid A, His6 and Flag tags) and lambda CL (plasmid E); also called G100K/G104T G24L/S28R/G35V & V91L/S96P S52F) VH: EVQLVQSGAEVKKPGESLKISCKTSGYRFTSYWIVWVRQMPGKGLEWMGIIYPGDSDTRYSPSFQGQVTISADKSISTAYLQWSSLKASDTAMYYCARRKYSYTYDYFDYWGQGTLVTVSS VL: QTVVTQEPSFSVSPGGTVTLTCGLSSGSVSTSYYPSWYQQTPGQAPRTLIYFTNTRSSGVPDRFSGSILGNKAALTITGAQADDESDYYCLLYMGPGISYVFGTGTKVTVL	0.99	0.42	0.49	0.69
Fab VH5-51_IGHD5-18*01>3_IGHJ4*01 G100K/G104T S28R (KT S28R) & V3-4_IGLJ1*01 (wildtype) (Fab, V domains shown, Fab; Expressed in E. coli with CH1 (plasmid A, His6 and Flag tags) and lambda CL (plasmid E); also called H:KT S28R & L:wt) VH: EVQLVQSGAEVKKPGESLKISCKGSGYRFTSYWIGWVRQMPGKGLEWMGIIYPGDSDTRYSPSFQGQVTISADKSISTAYLQWSSLKASDTAMYYCARRKYSYTYDYFDYWGQGTLVTVSS VL: QTVVTQEPSFSVSPGGTVTLTCGLSSGSVSTSYYPSWYQQTPGQAPRTLIYSTNTRSSGVPDRFSGSILGNKAALTITGAQADDESDYYCVLYMGSGISYVFGTGTKVTVL	0.26	0.18	0.2	0.23

Further lines, results first:

ELISA signal [1]	ELISA signal [2]	ELISA signal [3]	ELISA signal [4]	Binder
0.9	0.41	0.56	0.72	Fab VH5-51_IGHD5-18*01>3_IGHJ4*01 G100K/G104T G24T/S28R/G35V (KT TRV) & V3-4_IGLJ1*01 V91L/S96P S52Y (Fab, V domains shown, Fab; Expressed in E. coli with CH1 (plasmid A, His6 and Flag tags) and lambda CL (plasmid E); also called H:KT TRV & L:LP S52Y) VH: EVQLVQSGAEVKKPGESLKISCKTSGYRFTSYWIVWVRQMPGKGLEWMGIIYPGDSDTRYSPSFQGQVTISADKSISTAYLQWSSLKASDTAMYYCARRKYSYTYDYFDYWGQGTLVTVSS VL: QTVVTQEPSFSVSPGGTVTLTCGLSSGSVSTSYYPSWYQQTPGQAPRTLIYYTNTRSSGVPDRFSGSILGNKAALTITGAQADDESDYYCLLYMGPGISYVFGTGTKVTVL
0.18	0.18	0.16	0.18	Fab VH5-51_IGHD5-18*01>3_IGHJ4*01 G100K/G104T (KT) & V3-4_IGLJ1*01 (wildtype) (Fab, V domains shown, Fab; Expressed in E. coli with CH1 (plasmid A, His6 and Flag tags) and lambda CL (plasmid E); also called H:KT & L:wt; KT double mutant) VH: EVQLVQSGAEVKKPGESLKISCKGSGYSFTSYWIGWVRQMPGKGLEWMGIIYPGDSDTRYSPSFQGQVTISADKSISTAYLQWSSLKASDTAMYYCARRKYSYTYDYFDYWGQGTLVTVSS VL: QTVVTQEPSFSVSPGGTVTLTCGLSSGSVSTSYYPSWYQQTPGQAPRTLIYSTNTRSSGVPDRFSGSILGNKAALTITGAQADDESDYYCVLYMGSGISYVFGTGTKVTVL
0.2	0.19	0.18	0.19	Fab VH5-51_IGHD5-18*01>3_IGHJ4*01 G100K & V3-4_IGLJ1*01 (wildtype) (Fab, V domains shown, Fab; Expressed in E. coli with CH1 (plasmid A, His6 and Flag tags) and lambda CL (plasmid E); also called G100K & Wildtype) VH: EVQLVQSGAEVKKPGESLKISCKGSGYSFTSYWIGWVRQMPGKGLEWMGIIYPGDSDTRYSPSFQGQVTISADKSISTAYLQWSSLKASDTAMYYCARRKYSYGYDYFDYWGQGTLVTVSS VL: QTVVTQEPSFSVSPGGTVTLTCGLSSGSVSTSYYPSWYQQTPGQAPRTLIYSTNTRSSGVPDRFSGSILGNKAALTITGAQADDESDYYCVLYMGSGISYVFGTGTKVTVL
1.14	0.63	0.9	1.02	Fab VH5-51_IGHD5-18*01>3_IGHJ4*01 G100K/G104T G24T/S28R/G35V (KT TRV) & V3-4_IGLJ1*01 V91L/S96P S52G (LP S52G) (Fab, V domains shown, Fab; Expressed in E. coli with CH1 (plasmid A, His6 and Flag tags) and lambda CL (plasmid E); also called H:KT TRV & L:LP S52G) VH: EVQLVQSGAEVKKPGESLKISCKTSGYRFTSYWIVWVRQMPGKGLEWMGIIYPGDSDTRYSPSFQGQVTISADKSISTAYLQWSSLKASDTAMYYCARRKYSYTYDYFDYWGQGTLVTVSS VL: QTVVTQEPSFSVSPGGTVTLTCGLSSGSVSTSYYPSWYQQTPGQAPRTLIYGTNTRSSGVPDRFSGSILGNKAALTITGAQADDESDYYCLLYMGPGISYVFGTGTKVTVL
0.95	0.43	0.6	0.74	Fab VH5-51_IGHD5-18*01>3_IGHJ4*01 G100K/G104T G24A/S28R/G35V (KT ARV) & V3-4_IGLJ1*01 V91L/S96P S52V (Fab, V domains shown, Fab; Expressed in E. coli with CH1 (plasmid A, His6 and Flag tags) and lambda CL (plasmid E); The light-chain S52 variants were made on the KT TRV heavy chain (T0104); also called G100K/G104T G24A/S28R/G35V & V91L/S96P S52V) VH: EVQLVQSGAEVKKPGESLKISCKTSGYRFTSYWIVWVRQMPGKGLEWMGIIYPGDSDTRYSPSFQGQVTISADKSISTAYLQWSSLKASDTAMYYCARRKYSYTYDYFDYWGQGTLVTVSS VL: QTVVTQEPSFSVSPGGTVTLTCGLSSGSVSTSYYPSWYQQTPGQAPRTLIYVTNTRSSGVPDRFSGSILGNKAALTITGAQADDESDYYCLLYMGPGISYVFGTGTKVTVL
